In publication PMC9811728:

Key:
[1] = biological target: SC-CAT (SpyCatcher fused to the N-terminus of catalase) (Bacillus subtilis strain 168); assay: SEC; elution profiles compared with molecular weight standards
[2] = biological target: SC-LOX (SpyCatcher fused to the N-terminus of lactate oxidase) (Aerococcus viridans); assay: as above

Substance | stoichiometry N [1] | stoichiometry N [2]
SC-CAT (SpyCatcher fused to the N-terminus of catalase) (enzyme) | 4 | 
SC-LOX (SpyCatcher fused to the N-terminus of lactate oxidase) (enzyme) |  | 4
